In patent publication US6017692, “Methods of detecting a malignant cell in a biological sample comprising measuring Mxi gene expression alterations” (The General Hospital Corporation, dated 1994) one finds binding result and β-galactosidase (galactose) data, which are given here for three molecules.

One series has as its target Max (151 residue form) (Homo sapiens, UniProt P61244-2 P61244-2:1-151). The experiment in a line: EMSA; complex b, 10 ng Max; 10 mM Tris pH 7.4, 80 mM NaCl, room temperature. The following applies: tags: none stated; E. coli; chain copies: 2 (inferred); label: 32P 5' end. As for the experimental part:
(§1) Gel retardation DNA binding assays were performed essentially as described in Papoulas et al., (J. Biol. Chem. 267:10470–10480, 1992). Purified Max and c-Myc bHLH-Zip (which contained residues 342–439 of human c-Myc) were made from recombinant *E. coli* by standard techniques. GST-Mxi1 was made as follows: a fragment that contained the entire coding sequence of Mxi1 was amplified using polymerase chain reaction, subcloned into pGEX-2T (Pharmacia), and transformed into DH5α cells. The fusion protein was induced and isolated as described (Smith and Corcoran, *Current Protocols in Molecular Biology*, Ausubel et al., eds., Greene Publishing and Wiley-Interscience, New York, 1989). A double-stranded oligonucleotide, 5'-[…]-3' (SEQ ID NO: 9), that contained the CACGTG (SEQ ID NO: 10) consensus site was used. Approximately 0.5 μg of oligonucleotide was end labeled with [γ-^32P] ATP. Binding assays contained the indicated concentrations of purified Max, c-Myc bHLH-Zip, GST-Mxi1, and 0.5 ng of the labeled DNA probe. […]

For the next series, the target named is LexA-Id (human). The experiment in a line: interaction trap (yeast two-hybrid), pJK103 LexAop-lacZ reporter, galactose.
The next series concerns the target LexA-Hairy (Drosophila). The series is described as above.
For series [1], the target named is LexA-Da (Escherichia coli (strain K12); Drosophila melanogaster (Fruit fly)) (UniProt P0A7C2). The description is as above.
The target in series [2] is LexA-n-Myc-bHLH-Zip (Escherichia coli (strain K12); Homo sapiens (Human)). The experiment in a line: interaction trap (yeast two-hybrid), pJK103 LexAop-lacZ reporter, galactose (<2 on glucose); the text says that this bait does not interact.
The next series concerns the target LexA-Mxi1 (human). As to the kind of experiment: interaction trap (yeast two-hybrid), pJK103 LexAop-lacZ reporter, galactose; the same value 10 stands on glucose, where tagged Mxi1 is not induced, and the filing reads this as no self-interaction.
For another series, the target named is LexA-Max (human). The experiment in a line: interaction trap (yeast two-hybrid), pJK103 LexAop-lacZ reporter, galactose (<2 on glucose).
In a further series the target is LexA-cMyc-Cterm (human). The series is described as above.
Series [3] deals with c-Myc bHLH-Zip (amino acids 342-439) (human, UniProt P01106). The experiment in a line: gel retardation with an oligonucleotide holding the CACGTG site. The procedure:
as §1

Where only a bound is given, the exact number is not on record here.

LexA-Id (human), sequence (P0A7C2 other isoform, or with tags, fused parts or gaps): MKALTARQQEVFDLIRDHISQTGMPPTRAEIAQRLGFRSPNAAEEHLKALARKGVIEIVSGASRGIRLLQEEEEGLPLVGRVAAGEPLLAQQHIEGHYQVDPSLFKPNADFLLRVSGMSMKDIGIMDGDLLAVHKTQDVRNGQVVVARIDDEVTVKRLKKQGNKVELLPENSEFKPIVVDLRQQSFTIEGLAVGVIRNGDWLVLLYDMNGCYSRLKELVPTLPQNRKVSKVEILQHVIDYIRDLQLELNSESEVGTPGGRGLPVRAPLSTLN
LexA-Hairy (Drosophila), sequence (P0A7C2 other isoform, or with tags, fused parts or gaps): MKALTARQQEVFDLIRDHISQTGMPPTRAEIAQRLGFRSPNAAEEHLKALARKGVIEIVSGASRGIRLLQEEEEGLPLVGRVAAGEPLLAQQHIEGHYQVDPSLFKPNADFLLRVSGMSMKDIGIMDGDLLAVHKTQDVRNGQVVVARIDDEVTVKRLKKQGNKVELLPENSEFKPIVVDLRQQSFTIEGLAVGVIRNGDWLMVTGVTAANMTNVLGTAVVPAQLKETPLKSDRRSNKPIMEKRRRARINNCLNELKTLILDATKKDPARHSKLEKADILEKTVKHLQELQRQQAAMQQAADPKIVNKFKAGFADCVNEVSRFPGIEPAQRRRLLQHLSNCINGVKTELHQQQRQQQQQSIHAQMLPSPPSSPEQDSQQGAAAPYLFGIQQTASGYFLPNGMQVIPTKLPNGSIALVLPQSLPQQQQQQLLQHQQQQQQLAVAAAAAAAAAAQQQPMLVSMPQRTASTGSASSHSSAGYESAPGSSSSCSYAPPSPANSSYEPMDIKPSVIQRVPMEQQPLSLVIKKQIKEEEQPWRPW
LexA-n-Myc-bHLH-Zip (Escherichia coli (strain K12); Homo sapiens (Human)), sequence (P0A7C2 1-202, tags or fused parts left off): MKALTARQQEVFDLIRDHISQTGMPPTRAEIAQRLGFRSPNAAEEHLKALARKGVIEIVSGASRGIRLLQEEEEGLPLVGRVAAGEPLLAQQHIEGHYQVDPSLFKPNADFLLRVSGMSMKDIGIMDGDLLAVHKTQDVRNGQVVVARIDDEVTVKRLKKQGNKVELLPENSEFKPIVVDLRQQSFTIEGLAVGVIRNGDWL
LexA-Da (Escherichia coli (strain K12); Drosophila melanogaster (Fruit fly)), sequence (P0A7C2 1-202, tags or fused parts left off): as above
Max (151 residue form), sequence (P61244 other isoform, or with tags, fused parts or gaps): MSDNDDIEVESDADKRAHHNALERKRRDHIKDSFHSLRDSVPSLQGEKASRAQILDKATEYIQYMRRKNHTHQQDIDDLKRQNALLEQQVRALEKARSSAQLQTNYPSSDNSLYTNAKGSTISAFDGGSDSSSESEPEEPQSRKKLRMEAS

B1: Myc-Max consensus site oligonucleotide (dsDNA)
DNA 1: GGAAGCAGACCACGTGGTCTGCTTCC
DNA 2: GGAAGCAGACCACGTGGTCTGCTTCC
Regarding B1, the binding result with Max (151 residue form) is “binds”.

B2: tagged Mxi1 (the invariant activation-tagged moiety of pJG4-5 fused to Mxi1 residues 10-220) (protein)
chain: PPKKKRKVAYPYDVPDYAKPPRRLSRAQKHSSGTSNTSTANRSTHNELEKNRRAHLRLCLERLKVLIPLGPDCTRHTTLGLLNKAKAHIKKLEEAERKSQHQLENLEREQRFLKWRLEQLQGPQEMERIRMDSIGSTISSDRSDSEREEIEVDVESTEFSHGEVDNISTTSISDIDDHSSLPSIGSDEGYSSASVKLSFTSYRTQHDITVQGKIFTGPIQYKQSLKLGS
Turning to B2, the β-galactosidase (galactose) with LexA-Id (human) was below 2; with LexA-Hairy (Drosophila), below 2; in [1], below 2; in series [2], 8; with LexA-Mxi1 (human), 10; with LexA-Max (human), 120. This molecule registered a β-galactosidase (galactose) in the series with LexA-cMyc-Cterm (human) of 10.

B3: glutathione S-transferase (GST)-Mxi1 1-220 (other)
chain: MPSPRLQHSKPPRRLSRAQKHSSGTSNTSTANRSTHNELEKNRRAHLRLCLERLKVLIPLGPDCTRHTTLGLLNKAKAHIKKLEEAERKSQHQLENLEREQRFLKWRLEQLQGPQEMERIRMDSIGSTISSDRSDSEREEIEVDVESTEFSHGEVDNISTTSISDIDDHSSLPSIGSDEGYSSASVKLSFTSYRTQHDITVQGKIFTGPIQYKQSLKLGS
Turning to B3, the binding result in series [3] was “no binding”.
